These results are taken from PMC7226213 (Cancer Science, 2020).

Test [1] concerns the target T1, fibroblast growth factor 19 (FGF19), full-length (human, UniProt O95750, biotin (where co-transfected with BirA biotin-protein ligase)). In words: SPR.
Test [2] deals with T1, fibroblast growth factor 19 (FGF19), …. In words: ELISA. (In general: In an ELISA, binding on a coated surface is turned into a signal by an enzyme label.)

Substitutions are numbered along the chain they refer to.

T1 sequence (O95750 25-216): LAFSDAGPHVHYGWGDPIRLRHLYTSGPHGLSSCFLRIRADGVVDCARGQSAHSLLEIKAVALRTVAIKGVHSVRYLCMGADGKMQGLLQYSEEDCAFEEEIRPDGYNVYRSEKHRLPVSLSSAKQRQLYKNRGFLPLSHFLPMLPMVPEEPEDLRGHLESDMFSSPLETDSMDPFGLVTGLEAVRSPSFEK

B1: 31A3, human IgG1 Ab (antibody, V domains shown)
VH: not shown
VL: QAGLTQPASVSGSPGQSITISCTGTSSDVGGYNYVSWYQQHPGKAPKLMIYDVSNRPSGVSDRFSGSKSGNTASLTISGLQTEDEADYYCSSYTRSSTLVFGGGTQLTVL
On to B1, for which, in test [1], the binding result is given as “binds”.

B2: G1A8-Fab (Fab, V domains shown)
VH: not shown
VL: B1 VL with Y93W, T98G
Consider B2, for which the IC50 in test [2] was 1.39 nM.

B3: G1A8, human IgG1 Ab (antibody, V domains shown)
VH: not shown
VL: B1 VL with Y93W, T98G
On to B3, for which, in test [1], the “fold increase of affinity over 31A3” value was determined as 27 fold and the “fold slower dissociation rate than 31A3” value came out at 60 fold.

One may read the IC50 as the midpoint of a concentration-inhibition curve. Read a high IC50 as lower potency.
